According to PMC3741624:

Target: human plasma fibronectin, manually deposited single Fn fibers (human)

Row | ratio of ALP positive hMSCs on stretched Fn fibers after 7 days with the function-blocking antibody against α5β1 (clone JBS5), against no antibody [%] | ratio of ALP positive hMSCs on relaxed Fn fibers after 7 days with the function-blocking antibody against αvβ3 (clone 23C6), against no antibody [%] | Substance
1 | 31 | – | integrin α5β1 (from UniProt P08648 42-1049; P05556 21-798) (receptor)
2 | – | 30 | integrin αvβ3 (from UniProt P06756 31-1048; P05106 27-788) (receptor)
